# B1: TPR t1 (parent)
# chain: GACCAAUCUGCCCUCAGAGCUCGAGAACAUCUUCGGAUGCAGAGGAGGCAGGCUUCGGUGGCGCGAUAGCGCCAACGUCCUCAACCUCCAAUGCAUCCCACCACAUGAUGAUGCCUGAAGAGCCUUGGUUUUUUG
# Variants of: B1
# Assay: polymerase ribozyme fitness, log enrichment relative to wild type (log ratio); higher = more active; in vitro selection for triplet polymerase activity
# Outline: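 Streptavidin-bead capture of gel-excised extended constructs, followed by RT-PCR, closed a single triplicate in vitro selection round. That round began by annealing PCR-built, transcribed mutant libraries of each subunit of a heterodimeric triplet polymerase ribozyme with a biotinylated primer, the partner subunit and triplets, then incubating them frozen at −7 °C. After Illumina sequencing of inputs and outputs, genotypes needed ≥10 input reads and ≥1 read per output. Fitness is the base-2 logarithm of genotype enrichment over wild-type enrichment, using inverse-variance-weighted replicate averages.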
row,Variant,polymerase ribozyme fitness (log ratio)
1,GACCAAUCUGCCCUCAAAGCUCGAGAACAUCUUCGGAUGCAGAGGAGGCAGGCUUCGGUGGCGCGAUAGCGCAAACGUCCUCAACCUCCAAUGCAUCCCACCACAUGAUGAUGCCUGAACAGCCUUGGUUUUUUA [G17A C73A G120C G135A],-1.5
2,GAACAAUCUGCCCUCAGAGCUCGAGAACAUCUUCGGAUGCAGAGGAGGCAGGCUUCGGUGGCGCGAUAGCGCUAACGUGCUCAACCUCCAAUGCAUCCCACCACAUGAUGAUGCCUGAGGAGACUUGGUUUUUUG [C3A C73U C79G A119G C123A],0.0633
3,GACCAAUCUGCCCUCAGAGCUCGAGAACAUCUUCGGAUGCAGAGGAGUCAGGCUGCGGUGGCGCGAUAGCGCCAACGUCCUCAACCUCCAAUGCAUCCCACCACAUGAUGAUGCCUGAAGAGCCUUGGUUUUUUG [G48U U55G],-0.43
4,GACCAAUCUGCCCUCAGAGCUCGAGAACAUCUUCGGAUGCAGAGGAGGCAGGCUUCGGUGGCGCGAUAGCGCCAACGUCCUCAACCUCAAAUGCAUCCCACCACAAGAUGAUCCCUGAAGAGGCUUGGUUUUUUG [C89A U106A G113C C123G],-1.57
5,GACCAAUCUGCCCUCAGAGCUCGAGAACAUCUUCGGAUGCAGAGGAGGCAGGCUUCGGUGGCGCGAUAGCGCCAACGUCCUCAACCUCCAAUGCACCCCACCACAUGAUGAUGUCUGAAGAGCCUUGGUUUUUUG [U96C C114U],-2.44
6,GACCAAUCUGCCCUCAGAGCUCGAGAACAUCUUCGGAUGCAGAGGAGGCAGGCUUCGGUGGCGCGAUAGCGCCAACGUCCUCAACCUCCGAUGCAUCCUACCACACGAUGAUGCCUGAAGAGCCUUGGUUUUUUG [A90G C99U U106C],-2.51
7,GACCAAUCUGCCCUCAGAGCUCGAGAACAUCUUCGGAUGCAGAGGAGGCAGGCUUCGGUGGCGCGAUAGCACCAACGUCCUCAACCUACAAUGCAUCCCACCACAUGAUGAUGCCUGAAGAGCCUUGGUUUUUUG [G71A C88A],-0.898
8,GAACAAUCUGCCCUCAGAGCUCGAGAACAUCUUCGGAUGCAGAGGAGGCAGGCUUCGGUGGCGCGAUAGCGCGAACGUCCUCAACCUCCAAUGCAUCCCACCACAUGAUGAUGCCUGAAGAGCCUUGGUUUUUUG [C3A C73G],-1.48
9,GACCAAUCUGCCCUCAGAGCUCGAGAACAUCUUCGGAUGCAGAGGAGGCAGGCUUCGGUGGCGCGAUAGCGUCAACGUCCUCAACCUCCAAUGCAUCCCACCACAUGAUGAUGCCUGAAGAGCCCUGGUUUUUUG [C72U U125C],-1.92
10,GACCCACCUGCCCUCAGAGCUCGAGAACAUCUUCGGAUGCAGAGGAGGCAGGCUUCUGUGGCGCGAUAGCGCCAACGUCCUCAACCUCCAAUGCAUCCUACCACAUGAUGAAGCCUGAAGAGCCUUGGUUUUUUG [A5C U7C G57U C99U U112A],-3.19
11,GACCAGGCUGCCCUCAGAGCUCGAGAACAUCUUCGGAUGCAGAUGAGGCAGGCUUCGCUGGCGCGAUAGCGCCAACGUCCUCAACCUCCAAUGCAUCCCACCACAUGAUGAUACCUGAAGAGCCUUGGUUUUUUG [A6G U7G G44U G58C G113A],-0.812
12,GACCAAACUGCCCACAGAGCUCGAGAACAUCUUCGGGUGCAGAGGAGGCAGGCUUCGGUGGCGCGAUAACGCCAACGUCCUCAACCUCCAAUGCAUCCCACCACAUGAUGAUGCCUGAAGAGCCUUGGUUUUUUG [U7A U14A A37G G69A],-3.91
13,GACCAAUAUGCCCUCAGAGGUCGAGAACAUCUUCGGAUGCAGAGGAGGCAGGCUUCGGUGACGCGAUAGCGCCAACGUCCUCAACCUCCAAUGCAUCCCACCACAUGAUGAUGCCUGAAGAGCCUUGGUUUUUUG [C8A C20G G61A],-4.4
14,GACCAAUCUGCCCUCAGAGCUCGAGAACAGCUUCGGAUGCAGUGUAAGAAGGCUUCGGUGGCGCGAUAGCGCCAACGUCCUCAACCUCCAAUGCAUCCCACCACAAGAUGAUGCCUGAGGAGCCUUGGUUUUUUG [U30G A43U G45U G47A C49A U106A A119G],-4.24
15,GACCAAUCUGCCCUCACCGCUCGAGAACAUCUUCGGAUGCAGUGGAGGCAGGCUUCGGUGGCGCGAUAGCGCCAACGUCCUCAACCUCUAAUGCAUCCCACCACAUGAUGAUGCCUGAAGAGCCUUGGUUUUUUG [G17C A18C A43U C89U],-2.92
16,GACCAAUCUGCCCUCAGAGCUCGAGAACAUCUUCGGAUGUAGAGGAGGCAGGCUUCGGUGGCGCGAUAGCGCCAACGUCCUCAACCUCCAAUGCCUCCCACCACAUGAUGAUGCCUGAAGAGCCUUGGUUUUUUG [C40U A95C],-1.45
17,GACCAAUCUGCCGUCAGAUCUCGAGAACAUCUUCGGAUGCAGAGGAGGCAGGCUUCGGUGGCGCGAUAGCGCCAACGUCCUCAACCUCCAAUGCAUCCCACCACAUGAUGAUGCCUGAAGAGCCUUGGUUUUUUG [C13G G19U],-4.76
18,GACCAAUCUGCCCUCAGAGCUCGAGAACAUCUUCGGAUGCAGAGGAGGCAGGCUGCGGUGGCGCGAUAGCGCCAACGUCCUCAAUCUCCAAUGCAUCCCACCACAUGAUGAUGCCUGAAGAGCCUUGGUUUUUUG [U55G C85U],-0.919
19,GACCAAUCUGCCCUCAGAGCUCGAGAACAUCUUCGGAUGCAGAGGAGGCAGGCUUCGGUGGCGAGAUAGCGCCAACGUCCUCAACCUCCGAUGCAUCCCACCACAUGAUGAGGCCUGAAGAGCCUUGGUUUUUUG [C64A A90G U112G],-5.49
20,GACCAAUCUGCCCUCAGAGCUCGAGAACAUCUUCGGAUGCAGAGGAGGCAGGCUUCGGUGGCGCGAUAGCGGCAACGUCCUCAACCUCCAAUGCAUCCCUCCACAUGAUGAUUCCUGAAGAGCUUUGGUUUUUUG [C72G A100U G113U C124U],-4.64
21,GACCAAUCUGCCCUCAGAGCUCGGGAACAUCUUCGGAUGCAGAGGUGGCAGGCUUCGGUGGCGCGAUAGCGUCAACGUCCUCAACCUCCAAUGCAUCCCACCACAUGAUGAUGCCUGAAGAGCCUGGCUUUUUUG [A24G A46U C72U U126G G128C],-4.57

# Reference: the RNAGym collection of RNA variant scans (doi:10.1073/pnas.2313332121)
